Results reported in the RNAGym collection of RNA variant scans (doi:10.7554/elife.80360).

B1: HDV Ribozyme (parent)
chain: GGCCGGCAUGGUCCCAGCCUCCUCGCUGGCGCCGGCUGGGCAACAUUCCGAGGGGACCGUCCCCUCGGUAAUGGCGAAUGGGACCCA

Variants of: B1
Assay: self-cleavage, relative activity (ratio to wild type); higher = more cleavage; co-transcriptional

| Variant | self-cleavage |
| --- | --- |
| C4U C18G | 0.095 |
| C41G G52C | 0.509 |
| A51U C86A | 0.848 |
| C36U G81A | 0.24 |
| C30G A43U | 0.194 |
| U69C A87C | 1.18 |
| A51U A78C | 0.242 |
| C49A A70U | 0.812 |
| G25A A56C | 0.325 |
| C4U U65A | 0.727 |
| C7A C21A | 0.0791 |
| U46A G68U | 0.657 |
| A42G C57U | 0.527 |
| C41G U79A | 0.59 |
| G2C C48G | 0.0545 |
| C26G G38U | 0.435 |
| G40C U60C | 0.332 |
| C32U C84G | 0.399 |
| G10C U60C | 0.8 |
| G10U U12C | 0.0755 |
| G25A C26G | 1.11 |
| G67A G82A | 0.285 |
| U65G A83C | 0.703 |
| A45G C86A | 0.639 |

| Variant | self-cleavage |
| --- | --- |
| G1C U65G | 0 |
| G52A C86G | 1.04 |
| G1A G34A | 0.136 |
| A70C G81A | 0.453 |
| U79G C86U | 0.739 |
| G17U G55A | 0.554 |
| U72G G81U | 0.178 |
| C36A G67C | 0.208 |
| C41G C48G | 0.682 |
| C21G G81A | 0.0604 |
| C26G C75G | 0.227 |
| C3G C36U | 0.155 |
| A16U C33A | 0.0639 |
| A56U C63U | 0.799 |
| U20C A87C | 0.254 |
| C24A G38A | 0.208 |
| A45U A78G | 0.571 |
| C58G C63G | 0.91 |
| G10C G35C | 0.102 |
| C18G G35A | 0.156 |
| G2A G31U | 0.0205 |
| C4G A43G | 0 |
| G31A U47A | 0.332 |
| G53A G74U | 0.59 |

| Variant | self-cleavage |
| --- | --- |
| C15A C64A | 0.689 |
| G34C G40U | 0.151 |
| U9C U69C | 0.969 |
| C3G C64A | 0.528 |
| C21U U72G | 0.19 |
| C14G C64A | 0.511 |
| C14G C44G | 0.196 |
| C44A C66G | 0.898 |
| C63U G82U | 0.509 |
| C26G G28U | 0.0396 |
| U65G G76C | 1.15 |
| C7G C64A | 0.0831 |
| U12G G81A | 0.201 |
| C18G G40A | 0.175 |
| A56U A87U | 1.08 |
| U37C G59C | 1.16 |
| C32G G50C | 0.262 |
| A16G A83U | 0.415 |
| U23C A83C | 0.302 |
| G2U C19A | 0.0165 |
| G10U C44A | 0.277 |
| A56G A70U | 1.1 |
| C64A A71C | 0.277 |
| G38U C48U | 0.141 |

| Variant | self-cleavage |
| --- | --- |
| A42G G82U | 0.0504 |
| A43U G59A | 0.633 |
| U9A G67A | 0.937 |
| C13U G82U | 0.359 |
| A45C C49G | 0.492 |
| U9G G76A | 1.23 |
| G5C C19A | 0 |
| G17U A51U | 0.491 |
| G11U U37C | 0.208 |
| C15A G55C | 0.482 |
| C26U G40C | 0.946 |
| G11A G17C | 0.113 |
| C19A G29C | 0.0941 |
| G35C G59U | 0.204 |
| A83G C85G | 1.12 |
| C22G C32A | 0 |
| G17A G74C | 0.0346 |
| C14A C62U | 0.623 |
| G50C G73C | 0.601 |
| G50C G73U | 0.246 |
| C15G G50A | 0.723 |
| C36A A43C | 0.095 |
| A42C A45G | 0.465 |
| A8C U9G | 0.692 |

| Variant | self-cleavage |
| --- | --- |
| U12G G59A | 0.929 |
| G10A A42U | 0.244 |
| C33A G80U | 0.136 |
| G10C U69A | 0.831 |
| C44U G55A | 0.831 |
| C15U A71C | 0.467 |
| G40A G55U | 1.17 |
| G40U C57A | 0.719 |
| A71U G74C | 0.244 |
| A77U C85A | 0.514 |
| G6C A56G | 0.453 |
| G34A G68C | 0.0978 |
| C7A A70U | 0.356 |
| C3G C13A | 0.0545 |
| C66U G81U | 0.382 |
| C36U A70C | 0.849 |
| G31U G73U | 0.171 |
| G34A G39A | 0.198 |
| C3G C24A | 0 |
| G55U U69C | 1 |
| G82U A87G | 0.387 |
| C22G C36A | 0.0773 |
| A16G C58G | 0.776 |
| G17A A45G | 0.755 |

| Variant | self-cleavage |
| --- | --- |
| C41G C84A | 0.508 |
| G67C U79G | 0.435 |
| G11C G82U | 0.104 |
| C64U G73U | 0.345 |
| C3U C14A | 0.594 |
| U37C C49A | 1.31 |
| G28U U47A | 0.111 |
| C18U C26G | 0.869 |
| C4A C32U | 0.0489 |
| G11C G55U | 0.305 |
| U47G A83U | 0.525 |
| C18A A43C | 0.0462 |
| A16C G55U | 0.425 |
| C24A C64G | 0.749 |
| G1A G67A | 0.0665 |
| U46G C86A | 0.684 |
| U46G C86U | 0.277 |
| C32A G53C | 0.0923 |
| G11U G55A | 0.463 |
| C13G C32A | 0.0875 |
| G34U A87U | 0.141 |
| C4U U37G | 0 |
| U9C G38C | 0.107 |
| G1A G76U | 0.185 |

| Variant | self-cleavage |
| --- | --- |
| C21G G31A | 0.18 |
| A43G G55A | 0.566 |
| U27G C63A | 1.07 |
| G52C G68U | 0.332 |
| U27C C33U | 0.453 |
| C18G G34C | 0.104 |
| G38C C66U | 0.153 |
| C3U U46C | 0.567 |
| U46C G80U | 0.0903 |
| C13A G73A | 0.0863 |
| G50C C86A | 0.929 |
| G38C G67A | 0.194 |
| C48U A83U | 0.475 |
| A71U U72G | 0.684 |
| C63A G74A | 0.478 |
| G1C C66G | 0.128 |
| G17C C62A | 0.252 |
| G10A G80A | 0.11 |
| U23C G81U | 0.499 |
| C22A G80U | 0.0408 |
| G28A C84G | 0.0378 |
| C26A C84G | 0.95 |
| G2A A83C | 0.0583 |
